Measured values taken from PMC7721913.

Target: HA-SFPQ (human) (UniProt P23246)
Test: co-IP

Chain of Myc-KLC1 ΔTail (domain or fragment) (O88447 whole entry, stated change not applied, the tested form may be a part): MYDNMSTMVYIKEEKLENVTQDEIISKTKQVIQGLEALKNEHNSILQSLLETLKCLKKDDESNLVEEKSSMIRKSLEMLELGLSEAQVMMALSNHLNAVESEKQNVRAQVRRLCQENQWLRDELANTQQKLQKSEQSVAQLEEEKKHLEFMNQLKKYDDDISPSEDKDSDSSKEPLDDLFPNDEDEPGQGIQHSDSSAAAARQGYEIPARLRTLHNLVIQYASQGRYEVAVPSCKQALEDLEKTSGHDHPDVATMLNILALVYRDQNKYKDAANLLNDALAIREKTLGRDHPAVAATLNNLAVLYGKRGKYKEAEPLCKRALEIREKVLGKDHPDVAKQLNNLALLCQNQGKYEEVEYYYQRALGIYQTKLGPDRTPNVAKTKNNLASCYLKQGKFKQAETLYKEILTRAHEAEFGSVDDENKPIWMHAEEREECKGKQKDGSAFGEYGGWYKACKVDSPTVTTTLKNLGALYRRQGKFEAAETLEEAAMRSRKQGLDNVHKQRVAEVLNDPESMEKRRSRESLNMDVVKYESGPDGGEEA
Chain of HA-SFPQ (human) (P23246 whole entry): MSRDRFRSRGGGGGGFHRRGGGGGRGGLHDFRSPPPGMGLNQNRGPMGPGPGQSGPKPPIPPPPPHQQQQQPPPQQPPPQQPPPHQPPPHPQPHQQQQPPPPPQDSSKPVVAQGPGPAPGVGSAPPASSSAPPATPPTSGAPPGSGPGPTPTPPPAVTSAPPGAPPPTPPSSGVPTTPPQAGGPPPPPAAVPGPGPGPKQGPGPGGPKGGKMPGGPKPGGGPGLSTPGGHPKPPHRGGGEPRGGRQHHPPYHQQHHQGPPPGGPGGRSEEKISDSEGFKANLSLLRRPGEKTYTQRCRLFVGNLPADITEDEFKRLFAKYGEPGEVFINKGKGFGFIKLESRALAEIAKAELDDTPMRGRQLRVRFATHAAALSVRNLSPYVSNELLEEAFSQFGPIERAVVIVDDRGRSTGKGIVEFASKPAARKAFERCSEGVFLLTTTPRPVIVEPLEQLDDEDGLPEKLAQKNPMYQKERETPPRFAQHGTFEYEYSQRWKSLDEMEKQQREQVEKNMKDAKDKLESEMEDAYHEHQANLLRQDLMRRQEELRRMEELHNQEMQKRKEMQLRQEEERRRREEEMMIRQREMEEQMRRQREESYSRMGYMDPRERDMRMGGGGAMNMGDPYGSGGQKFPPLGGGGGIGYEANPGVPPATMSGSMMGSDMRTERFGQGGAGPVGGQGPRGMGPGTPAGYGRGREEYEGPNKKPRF

Myc-KLC1 ΔTail (domain or fragment)
reduction of binding against WT KLC1: 50%
